The results in this text go back to PMC5935755.

The target of the assay is ClpXP (ClpX ΔN-ter hexamer with ClpP tetradecamer) (UniProt P0A6H1).
Regarding “GFP-BAP1 (UCH domain, residues 1-238, ssrA-tagged) (from UniProt Q92560 1-238)”, the KM of ClpXP-mediated proteolysis (Michaelis-Menten analysis, loss of GFP fluorescence; 0.3 µM ClpX6, 0.9 µM ClpP14, 30 °C) amounted to 0.64 µM. GFP-UCHL1 (ssrA-tagged): the KM of ClpXP-mediated proteolysis (Michaelis-Menten analysis, loss of GFP fluorescence; 0.3 µM ClpX6, 0.9 µM ClpP14, 30 °C) was 3.67 µM.

On to GFP-UCHL1_(I93M) (ssrA-tagged), for which the KM of ClpXP-mediated proteolysis (Michaelis-Menten analysis, loss of GFP fluorescence; 0.3 µM ClpX6, 0.9 µM ClpP14, 30 °C) was determined as 4.47 µM. Consider GFP-UCHL3 (ssrA-tagged), for which the KM of ClpXP-mediated proteolysis (Michaelis-Menten analysis, loss of GFP fluorescence; 0.3 µM ClpX6, 0.9 µM ClpP14, 30 °C) stood at 2.59 µM.

Turning to “GFP-UCHL5 (UCH domain, residues 1-240, ssrA-tagged) (from UniProt Q9Y5K5 1-240)”, the KM of ClpXP-mediated proteolysis (Michaelis-Menten analysis, loss of GFP fluorescence; 0.3 µM ClpX6, 0.9 µM ClpP14, 30 °C) came out at 1.85 µM.
